Target: multi-tRNA synthetase complex without ArgRS and GlnRS (human (endogenous in HEK 293T)) (UniProt P56192)
Experiment: SEC; lysate of wildtype 293T cells (20 mM Tris-HCl pH 7.5, 1 mM EDTA, 150 mM NaCl, 0.1% IGEPAL CA-630) on Superdex 200 in Dulbecco's PBS; 1 ml fractions analysed by western blot; intact MSC in fractions 10-12

UniProt P56192, sequence (P56192 whole entry, looked up, one chain of several): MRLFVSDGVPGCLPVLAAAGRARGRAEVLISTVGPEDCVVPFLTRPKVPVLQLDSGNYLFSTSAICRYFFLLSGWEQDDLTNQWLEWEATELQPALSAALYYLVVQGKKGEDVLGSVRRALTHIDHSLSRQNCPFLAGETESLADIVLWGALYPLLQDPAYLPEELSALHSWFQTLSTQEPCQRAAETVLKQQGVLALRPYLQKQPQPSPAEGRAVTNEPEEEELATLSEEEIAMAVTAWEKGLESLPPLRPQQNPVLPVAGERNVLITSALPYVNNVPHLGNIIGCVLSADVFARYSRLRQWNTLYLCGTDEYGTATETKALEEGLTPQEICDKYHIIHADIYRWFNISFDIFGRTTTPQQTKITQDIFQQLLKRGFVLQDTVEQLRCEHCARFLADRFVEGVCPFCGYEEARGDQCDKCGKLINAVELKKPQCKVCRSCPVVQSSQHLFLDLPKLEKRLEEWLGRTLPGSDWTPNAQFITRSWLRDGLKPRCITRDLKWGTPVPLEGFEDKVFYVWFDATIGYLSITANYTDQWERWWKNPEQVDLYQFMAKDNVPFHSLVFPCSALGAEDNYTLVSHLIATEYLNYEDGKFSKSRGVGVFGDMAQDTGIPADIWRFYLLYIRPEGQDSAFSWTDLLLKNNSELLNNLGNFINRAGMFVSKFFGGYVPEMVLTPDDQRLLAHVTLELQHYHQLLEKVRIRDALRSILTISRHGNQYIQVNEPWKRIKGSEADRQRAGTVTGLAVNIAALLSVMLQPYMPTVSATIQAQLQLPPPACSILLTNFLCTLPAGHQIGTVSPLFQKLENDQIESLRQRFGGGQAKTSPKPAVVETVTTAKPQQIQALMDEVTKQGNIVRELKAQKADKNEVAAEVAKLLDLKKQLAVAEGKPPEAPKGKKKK

percent of ArgRS not bound to the MSC: 40%
B1: arginyl-tRNA synthetase, full-length (enzyme)
chain: MDVLVSECSARLLQQEEEIKSLTAEIDRLKNCGCLGASPNLEQLQEENLKLKYRLNILRKSLQAERNKPTKNMINIISRLQEVFGHAIKAAYPDLENPPLLVTPSQQAKFGDYQCNSAMGISQMLKTKEQKVNPREIAENITKHLPDNECIEKVEIAGPGFINVHLRKDFVSEQLTSLLVNGVQLPALGENKKVIVDFSSPNIAKEMHVGHLRSTIIGESISRLFEFAGYDVLRLNHVGDWGTQFGMLIAHLQDKFPDYLTVSPPIGDLQVFYKESKKRFDTEEEFKKRAYQCVVLLQGKNPDITKAWKLICDVSRQELNKIYDALDVSLIERGESFYQDRMNDIVKEFEDRGFVQVDDGRKIVFVPGCSIPLTIVKSDGGYTYDTSDLAAIKQRLFEEKADMIIYVVDNGQSVHFQTIFAAAQMIGWYDPKVTRVFHAGFGVVLGEDKKKFKTRSGETVRLMDLLGEGLKRSMDKLKEKERDKVLTAEELNAAQTSVAYGCIKYADLSHNRLNDYIFSFDKMLDDRGNTAAYLLYAFTRIRSIARLANIDEEMLQKAARETKILLDHEKEWKLGRCILRFPEILQKILDDLFLHTLCDYIYELATAFTEFYDSCYCVEKDRQTGKILKVNMWRMLLCEAVAAVMAKGFDILGIKPVQRM

Reference: paper PMC8053116
